From the Human Domainome abundance scans (Beltran et al. 2025)
± gives the uncertainty stated by the source.

B1: Peripheral plasma membrane protein CASK, residues 488 to 569; numbered along this chain, O14936 (parent)
chain: VRLVQFQKNTDEPMGITLKMNELNHCIVARIMHGGMIHRQGTLHVGDEIREINGISVANQTVEQLQKMLREMRGSITFKIVP

Variants of: B1
Assay: abundance fitness (aPCA) (normalised: wild type 0, dead -1); higher = more abundant; growth selection in yeast, the domain comes from the species named
Settings: Homo sapiens

| Variant | abundance fitness |
| --- | --- |
| L18N | -0.918 ± 0.35 |
| L18E | -0.909 ± 0.096 |
| L18C | -0.262 ± 0.045 |
| L18V | -0.088 ± 0.029 |
| L18Q | -0.797 ± 0.13 |
| G15P | -0.266 ± 0.037 |
| G15W | -0.374 ± 0.048 |
| G15N | -0.398 ± 0.048 |
| G15Y | -0.776 ± 0.073 |
| G15R | -0.467 ± 0.037 |
| M36T | 0.006 ± 0.05 |
| M36V | 0 ± 0.036 |
| M36R | -0.092 ± 0.028 |
| M36L | 0.025 ± 0.037 |
| T77M | -0.309 ± 0.22 |
| T77N | -0.096 ± 0.065 |
| K8W | -0.136 ± 0.026 |
| K8I | 0.002 ± 0.045 |
| K8P | -0.256 ± 0.034 |
| K8M | -0.087 ± 0.032 |
| K8G | -0.242 ± 0.022 |
| E51V | -0.714 ± 0.3 |
| E51G | -0.048 ± 0.32 |
| Q60L | -0.051 ± 0.025 |

| Variant | abundance fitness |
| --- | --- |
| Q60H | -0.014 ± 0.042 |
| Q60F | 0.013 ± 0.041 |
| L69W | -0.308 ± 0.029 |
| L69T | -0.097 ± 0.027 |
| L69Q | -0.594 ± 0.045 |
| L69C | -0.093 ± 0.035 |
| L69R | -1 ± 0.049 |
| G35L | -0.268 ± 0.027 |
| G35T | -0.013 ± 0.033 |
| G35P | -0.549 ± 0.048 |
| G35N | -0.28 ± 0.068 |
| G35M | -0.128 ± 0.038 |
| G35Y | -0.134 ± 0.054 |
| E22K | -0.004 ± 0.042 |
| E22G | 0.022 ± 0.023 |
| M72F | 0.039 ± 0.038 |
| M72Q | -0.05 ± 0.03 |
| M72T | -0.022 ± 0.031 |
| M72C | 0.005 ± 0.03 |
| M72S | 0.007 ± 0.026 |
| S56A | 0.014 ± 0.023 |
| S56Q | -0.06 ± 0.029 |
| S56G | -0.02 ± 0.022 |
| N24W | -0.467 ± 0.032 |

| Variant | abundance fitness |
| --- | --- |
| N24G | 0.023 ± 0.019 |
| N21Y | -0.282 ± 0.041 |
| N21L | -0.228 ± 0.025 |
| N21V | -0.145 ± 0.028 |
| N21K | -0.186 ± 0.031 |
| I31K | -0.93 ± 0.15 |
| I31D | -0.61 ± 0.075 |
| I31F | -0.331 ± 0.13 |
| M14N | -0.337 ± 0.047 |
| M14Q | -0.531 ± 0.07 |
| Q64I | 0.003 ± 0.042 |
| Q64R | -0.066 ± 0.021 |
| Q64S | -0.021 ± 0.023 |
| Q64P | -0.334 ± 0.032 |
| Q64L | -0.08 ± 0.023 |
| V45Y | -0.665 ± 0.35 |
| V45M | -0.025 ± 0.074 |
| V45L | -0.061 ± 0.05 |
| V45Q | -0.134 ± 0.061 |
| V45S | -0.232 ± 0.051 |
| N53C | -0.208 ± 0.078 |
| N53E | -0.327 ± 0.039 |
| Q40I | -0.05 ± 0.038 |
| Q40L | -0.06 ± 0.022 |

| Variant | abundance fitness |
| --- | --- |
| P82T | -0.042 ± 0.049 |
| P82D | -0.039 ± 0.07 |
| P82L | -0.214 ± 0.053 |
| P82M | -0.204 ± 0.077 |
| E48P | -1.09 ± 0.24 |
| E48H | -0.108 ± 0.071 |
| E48T | -0.123 ± 0.053 |
| T17V | 0.003 ± 0.023 |
| T17C | -0.045 ± 0.034 |
| T17H | 0.031 ± 0.029 |
| T17P | -1.07 ± 0.075 |
| T17A | -0.079 ± 0.024 |
| T17K | 0.015 ± 0.03 |
| L3T | 0.033 ± 0.034 |
| L3E | 0.094 ± 0.029 |
| L3Q | 0.018 ± 0.03 |
| G54P | -0.911 ± 0.13 |
| G54M | -0.299 ± 0.088 |
| G54Y | -0.056 ± 0.24 |
| F78S | -0.839 ± 0.065 |
| F78M | 0.052 ± 0.1 |
| F78Q | -1.22 ± 0.42 |
| F78R | -0.812 ± 0.071 |
| F78Y | -0.524 ± 0.064 |

| Variant | abundance fitness |
| --- | --- |
| V62N | 0.01 ± 0.047 |
| V62H | -0.131 ± 0.047 |
| V62F | -0.238 ± 0.052 |
| T10A | -0.075 ± 0.028 |
| T10V | -0.113 ± 0.028 |
| T10P | -0.045 ± 0.044 |
| T10M | -0.007 ± 0.042 |
| T10Q | -0.111 ± 0.044 |
| T10G | -0.01 ± 0.024 |
| T10E | -0.07 ± 0.032 |
| I52T | -0.141 ± 0.17 |
| D11I | -0.142 ± 0.074 |
| D11L | -0.092 ± 0.038 |
| D11G | -0.034 ± 0.029 |
| D11E | -0.05 ± 0.03 |
| I49T | -0.576 ± 0.095 |
| I49D | -0.24 ± 0.2 |
| I49Q | -1 ± 0.24 |
| I49C | -0.855 ± 0.17 |
| I49M | -0.264 ± 0.097 |
| I49F | -0.721 ± 0.17 |
| I49A | -0.856 ± 0.089 |
| V1D | 0.055 ± 0.039 |
| V1E | 0.03 ± 0.043 |

| Variant | abundance fitness |
| --- | --- |
| V1L | -0.098 ± 0.035 |
| V1C | -0.056 ± 0.047 |
| V1G | -0.037 ± 0.028 |
| V1N | 0.037 ± 0.048 |
| N59G | 0.02 ± 0.022 |
| N59S | -0.045 ± 0.029 |
| N59F | -0.016 ± 0.04 |
| N59V | -0.164 ± 0.026 |
| N59K | -0.068 ± 0.039 |
| N59A | -0.047 ± 0.027 |
| G41V | -0.288 ± 0.025 |
| G41C | -0.137 ± 0.031 |
| G41A | -0.083 ± 0.024 |
| G41F | -0.618 ± 0.061 |
| G41K | -0.1 ± 0.032 |
| G41N | -0.072 ± 0.039 |
| Q5L | -0.092 ± 0.023 |
| Q5A | 0.07 ± 0.023 |
| Q5F | -0.041 ± 0.032 |
| L43R | -0.853 ± 0.036 |
| L43E | -0.774 ± 0.049 |
| L43M | -0.021 ± 0.03 |
| L43K | -0.99 ± 0.09 |
| L43Y | -0.733 ± 0.11 |

| Variant | abundance fitness |
| --- | --- |
| S75Y | -0.116 ± 0.048 |
| S75M | -0.081 ± 0.041 |
| S75P | -0.005 ± 0.048 |
| E63I | -0.108 ± 0.056 |
| E63M | -0.13 ± 0.031 |
| E63C | -0.08 ± 0.041 |
| E63W | -0.123 ± 0.027 |
| R73Q | -0.006 ± 0.031 |
| R73F | -0.124 ± 0.059 |
| R73K | 0.007 ± 0.033 |
| R73V | -0.038 ± 0.024 |
| R73L | -0.113 ± 0.026 |
| R73E | -0.02 ± 0.027 |
| R73C | -0.011 ± 0.038 |
| E12F | -0.231 ± 0.076 |
| I55C | 0.026 ± 0.033 |
| I55E | 0.026 ± 0.025 |
| I55W | -0.074 ± 0.026 |
| I55G | -0.124 ± 0.021 |
| I55Y | -0.061 ± 0.053 |
| I55K | -0.001 ± 0.03 |
| K79R | -0.061 ± 0.032 |
| K79I | -0.406 ± 0.055 |
